Experimental data: the supplement of paper PMC7877785
± gives the uncertainty stated by the source.

Test: self-splicing fitness, log relative to wild type (ln ratio); higher = more splicing; Tetrahymena group I intron in knt gene, E. coli kanamycin selection, DiMSum; sequences stand for … in CUCUCU…GGAGGGAAAAGUUAUCAGGCAUGCACCUGGUAGCUAGUCUUUAAACCAAUAGAUUGCAUCGGUUUAAAAGGCAAGACCGUCAAAUUGCGGGAAAGGGGUCAACAGCCGUUCAGUACCAAGUCUCAGGGGAAACUUUGAGAUGGCCUUGCAAAGGGUAUGGUAAUAAGCUGACGGACAUGGUCCUAACCACGCAGCCAAGUCCUAAGUCAACAGAUCUUCUGUUGAUAUGGAUGCAGUUCACAGACUAAAUGUCGGUCGGGGAAGAUGUAUUCUUCUCAUAAGAUAUAGUCGGACCUCUCCUUAAUGGGAGCUAGCGGAUGAAGUGAUGCAACACUGGAGCCGCUGGGAACUAAUUUGUAUGCGAAAGUAUAUUGAUUAGUUUUGGAGUACUCGUGGUCG
In short: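 Fitness was computed with DiMSum as the error-weighted combination of replicate fold changes, kanamycin versus none, each normalised to wild type. The library randomised all eight intron nucleotides of the P1ex region, with the intron placed in the knt kanamycin-resistance gene on pET-22b(+) in E. coli BL21(DE3). Six replicate transformations were grown overnight at 37°C or 30°C on LB agar with or without 25 μg/mL kanamycin, plus 100 μg/mL carbenicillin, 50 μM IPTG and 0.2% rhamnose. Pooled colonies were amplicon-sequenced on an Illumina HiSeq 2500.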

| Sequence | self-splicing fitness (ln) (30 °C) | self-splicing fitness (ln) (37 °C) |
| --- | --- | --- |
| GUCCAGCAAUAUUACGUCUG | -3.8 ± 0.47 | -2.47 ± 0.33 |
| CCUAAGCAAUAUUACGAAGG | -3.55 ± 0.16 | -2.9 ± 0.2 |
| UAGCAGCAAUAUUACGUGCG | -0.801 ± 0.076 | 0.26 ± 0.081 |
| UCGUAGCAAUAUUACGGUAG | -4.09 ± 0.36 | -3.06 ± 0.4 |
| GAGAAGCAAUAUUACGUUAG | -2.54 ± 0.19 | -2.08 ± 0.19 |
| GCUAAGCAAUAUUACGAGGA | -1.73 ± 0.11 | -0.693 ± 0.12 |
| UCGAAGCAAUAUUACGCAAG | -2.17 ± 0.12 | -1.6 ± 0.13 |
| CGUGAGCAAUAUUACGCUAA |  | -1.26 ± 0.48 |
| CGCAAGCAAUAUUACGCCGC |  | -1.24 ± 0.49 |
| CACUAGCAAUAUUACGCCUG | -0.103 ± 0.15 | -0.344 ± 0.14 |
| AGUUAGCAAUAUUACGAUCA | -0.843 ± 0.13 | 0.619 ± 0.12 |
| UACAAGCAAUAUUACGUUGG | -3.19 ± 0.12 | -1.41 ± 0.1 |
| GCGUAGCAAUAUUACGACUU | -0.421 ± 0.11 | 0.154 ± 0.15 |
| ACGGAGCAAUAUUACGUAAA |  | -1.27 ± 0.35 |
| AUACAGCAAUAUUACGGGUG | -1.63 ± 0.065 | -1 ± 0.073 |
| GGGCAGCAAUAUUACGUGGC | -3.12 ± 0.25 | -2.21 ± 0.26 |
| AAUCAGCAAUAUUACGACCG | -0.959 ± 0.098 | -0.795 ± 0.11 |
| AGUUAGCAAUAUUACGCGCA | -0.182 ± 0.14 | 0.341 ± 0.21 |
| UUUGAGCAAUAUUACGCAUG | -0.647 ± 0.12 | -0.524 ± 0.19 |
| ACGUAGCAAUAUUACGUCAG | -3.39 ± 0.18 | -2.34 ± 0.2 |
| GUGGAGCAAUAUUACGAAGG | -2.69 ± 0.27 | -2 ± 0.4 |

| Sequence | self-splicing fitness (ln) (30 °C) | self-splicing fitness (ln) (37 °C) |
| --- | --- | --- |
| GGUUAGCAAUAUUACGAGUG | -2.59 ± 0.35 | -1.39 ± 0.19 |
| ACAUAGCAAUAUUACGCUAA | -2.26 ± 0.23 | -0.742 ± 0.34 |
| GGGGAGCAAUAUUACGGUCC | -1.26 ± 0.46 |  |
| UACGAGCAAUAUUACGGAUC | -3.56 ± 0.4 | -2.63 ± 0.37 |
| CUGGAGCAAUAUUACGGGGA | -3.21 ± 0.28 | -2.39 ± 0.37 |
| GGCCAGCAAUAUUACGAGGG | -3.58 ± 0.16 | -1.75 ± 0.17 |
| UCGCAGCAAUAUUACGGAAC | -1.51 ± 0.32 | -2.53 ± 0.41 |
| GUUCAGCAAUAUUACGACUC | 0.0553 ± 0.47 |  |
| AUUUAGCAAUAUUACGUCAC | -3.2 ± 0.37 | -1.42 ± 0.32 |
| ACUGAGCAAUAUUACGCAAA | -2.29 ± 0.38 | -1.93 ± 0.34 |
| CCCAAGCAAUAUUACGGGGA | -2.82 ± 0.13 | -1.62 ± 0.09 |
| UAGGAGCAAUAUUACGGCAA |  | -1.07 ± 0.2 |
| GCAAAGCAAUAUUACGUGAG | -1.11 ± 0.046 | -0.539 ± 0.067 |
| UAGAAGCAAUAUUACGAGCU | -3.2 ± 0.25 | -1.18 ± 0.2 |
| GUCCAGCAAUAUUACGCCAA | -2.63 ± 0.18 | -2.72 ± 0.16 |
| AAUUAGCAAUAUUACGAGGC | -2.7 ± 0.32 | -2.6 ± 0.44 |
| UUCGAGCAAUAUUACGUUUU | -3.49 ± 0.18 | -2.77 ± 0.2 |
| CCGAAGCAAUAUUACGGGAA | -2.26 ± 0.25 | -1.73 ± 0.32 |
| GGUCAGCAAUAUUACGCGUU | -0.112 ± 0.084 | 0.0966 ± 0.13 |
| UUGAAGCAAUAUUACGACCU | 0.0483 ± 0.11 | 0.587 ± 0.14 |
| UAUAAGCAAUAUUACGUAUG | -1.31 ± 0.091 | -0.577 ± 0.12 |

| Sequence | self-splicing fitness (ln) (30 °C) | self-splicing fitness (ln) (37 °C) |
| --- | --- | --- |
| AAGGAGCAAUAUUACGUCGU | -2.73 ± 0.11 | -0.982 ± 0.12 |
| UAGAAGCAAUAUUACGAAUA | -1.14 ± 0.12 | -0.376 ± 0.12 |
| GUCUAGCAAUAUUACGUCAU | -0.258 ± 0.12 | -0.425 ± 0.081 |
| ACCCAGCAAUAUUACGGGUC | -1.89 ± 0.085 | -2.74 ± 0.19 |
| CUAGAGCAAUAUUACGCACU | -4.52 ± 0.46 | -1.99 ± 0.41 |
| AGGAAGCAAUAUUACGAUCU | -0.809 ± 0.085 | -0.905 ± 0.11 |
| CUGCAGCAAUAUUACGCACG | -1.03 ± 0.047 | -0.409 ± 0.069 |
| UUAAAGCAAUAUUACGAUAC | -1.57 ± 0.13 | -0.384 ± 0.16 |
| GUAGAGCAAUAUUACGGACA | -0.864 ± 0.17 | -1.72 ± 0.27 |
| CCGGAGCAAUAUUACGUCUG | -1.22 ± 0.14 | -0.402 ± 0.16 |
| GACAAGCAAUAUUACGUCGA | -2.53 ± 0.09 | -1.24 ± 0.078 |
| CUAAAGCAAUAUUACGUCGG | -0.261 ± 0.061 | -0.189 ± 0.078 |
| GGGAAGCAAUAUUACGAUUA | -1.56 ± 0.21 | -0.805 ± 0.18 |
| AAUAAGCAAUAUUACGUGCU | -1.8 ± 0.074 | -1.29 ± 0.08 |
| GGAGAGCAAUAUUACGUCUG | -1.13 ± 0.2 | -0.491 ± 0.25 |
| UGAAAGCAAUAUUACGACUA | -0.403 ± 0.08 | 0.139 ± 0.11 |
| UUGUAGCAAUAUUACGCAGU |  | -2.1 ± 0.3 |
| AUAUAGCAAUAUUACGCAUU | -3.04 ± 0.18 | -1.42 ± 0.15 |
| UAAGAGCAAUAUUACGAAGA |  | -1.98 ± 0.38 |
| GACCAGCAAUAUUACGUAGC | -0.693 ± 0.069 | -0.496 ± 0.082 |
